Values quoted from earlier work in paper PMC6484326.

Biological target: GPIIb-IIIa (Homo sapiens) (UniProt P08514)

Kd: 100 nM
Substance: fibrinogen (from UniProt P02671)
